US7387779B2, “Anti-angiogenic proteins and fragments and methods of use thereof” (Beth Israel Deaconess Medical Center, priority 1998, dated 2008)

Tested on: C-PAE cells
Assay: Annexin V-FITC apoptosis assay
Type: cell-based, bovine
Settings: for Apo (Annexin V-FITC assay): Table 4; for IC50, induction of endothelial cell apoptosis: 10% FBS
Procedure: Fifty thousand C-PAE cells were added to each well of a 6-well tissue culture plate in DMEM supplemented with 10% FBS for 12 hours. Fresh medium together and either 5 μg/ml Arresten or 40 ng/ml TNFα (positive control) was added at 2, 4 and 6 hour time points. Control wells received an equal of volume of PBS. Detached cells and adherent cells were pooled together and centrifuged at 1500 rpm. Cells were washed with binding buffer (Clontech, Palo Alto, Calif., USA), and phosphatidyl-serine (PS) externalization, an indicator of apoptosis, was measured by labeling with FITC-labeled annexin V (Clontech) according to manufacturer's instructions. Annexin-FITC labeled cells were counted using a FACStar Plus flow cytometer (Becton-Dickinson, Waltham, Mass., USA). For each treatment, 10,000 cells were counted and stored. […] Relative to controls, the percentage of annexin-V-stained (apoptotic) cells increased to about 27% at 2 hours, and near 20% at 4 and 6 hours for the positive control, TNFα. For Arresten-treated cells, the percentage of apoptotic cells was about 18% at 2 hours, and about 23% at 4 and 6 hours.
Annexin V-FITC Labeling. In order to establish apoptosis as the potential mode of action for Canstatin, Annexin V-FITC was used to label externalized phosphatidylserine (PS), to assess apoptotic cells. 0.5×10^6 C-PAE cells, PC-3, 786-O and HEK 293 cells were added to each well of a 6 well tissue culture plate in 10% FBS supplemented DMEM (BioWhittaker, Walkersville, Md., USA) overnight. The next day, fresh medium was added to all wells together with 40 ng/ml TNF-α (positive control) or 15 μg/ml Canstatin. Control cells received an equal volume of PBS. After 24 hours of treatment, medium containing detached cells was collected and attached cells were trypsinized and combined with detached cells and centrifuged at 3,000×g. Cells were then washed and phosphatidyl-serine externalization (an early apoptotic indicator) was measured by labeling with FITC-labeled annexin V (Clontech, Palo Alto, Calif., USA) according to the manufacturer's instructions. Annexin V-FITC-labeled cells were counted using a FAC Star Plus flow cytometer (Becton-Dickenson, Waltham, Mass., USA). For each treatment 15,000 cells were counted and stored in listmode.
C-PAE cells (0.5×10^6 per well) were seeded onto a 6-well plate in 10% FCS supplemented DMEM. The next day, fresh medium containing 10% FCS was added with either 80 ng/ml of TNF-α (positive control) or Tumstatin ranging from 0.02 to 20 μg/ml. Control cells received an equal volume of PBS. After 18 hours of treatment, medium containing floating cells was collected, and attached cells were trypsinized and centrifuged together with floating cells at 3,000×g. The cells were then washed in PBS and resuspended in binding buffer (10 mM HEPES/NaOH, pH 7.4, 140 mM NaCl, 2.5 mM CaCl2). Annexin V-FITC (Clontech, Palo Alto, Calif., USA) was added to a final concentration of 150 ng/ml, and the cells were incubated in the darkness for 10 minutes. The cells were washed again in PBS and resuspended in binding buffer. Annexin V-FITC labeled cells were counted using a FACStar Plus flow cytometer (Becton-Dickinson, Waltham, Mass., USA). For each treatment, 15,000 cells were counted and stored in listmode.
Apoptosis was measured by Annexin V-FITC assay, using the ApoAlert kit (Clontech, Palo Alto, Calif., USA). Propidium iodide was used to stain the nuclei of cells that had died by ways other than apoptosis.
The assay was performed as described above, by treating C-PAE cells with Tumstatin-44-131 for 18 hours. Control cells received PBS.

B1: Canstatin: NC1 domain of the α2 chain of Type IV collagen (SEQ ID NO:6) (protein, listed as Homo sapiens)
chain: VSIGYLLVKHSQTDQEPMCPVGMNKLWSGYSLLYFEGQEKAHNQDLGLAGSCLARFSTMPFLYCNPGDVCYYASRNDKSYWLSTTAPLPMMPVAEDEIKPYISRCSVCEAPAIAIAVHSQDVSIPHCPAGWRSLWIGYSFLMHTAAGDEGGGQSLVSPGSCLEDFRATPFIECNGGRGTCHYYANKYSFWLTTIPEQSFQGSPSADTLKAGLIRTHISRCQVCMKNL
B1 was tested, and the induction of apoptosis (15 μg/ml Canstatin, 24 hours) was “specifically induce apoptosis of endothelial cells” and the induction of apoptosis (concentrations above 1 μg/ml) was “induced apoptosis”.

B2: Tumstatin-44-131: residues 44 to 131 of full-length Tumstatin (SEQ ID NO:33) (protein)
chain: FSFLFVQGNQRAHGQDLGTLGSCLQRFTTMPFLFCNVNDVCNFASRNDYSYWLSTPALMPMNMAPITGRALEPYISRCTVCEGPAIAI
modifications: Tumstatin-45-132 (amino acids 45-132 of SEQ ID NO10)
With B2 the annexin fluorescence (5 μg/ml Tumstatin-44-131, 18 hours) was “distinct shift of the fluorescence intensity peak” and the “Apo (Annexin V-FITC assay)” value was “active”.

B3: Tumstatin: NC1 domain of the α3 chain of type IV collagen, residues 1-244 (SEQ ID NO:10) (protein, listed as Homo sapiens)
chain: GLKGKRGDSGSPATWTTRGFVFTRHSQTTAIPSCPEGTVPLYSGFSFLFVQGNQRAHGQDLGTLGSCLQRFTTMPFLFCNVNDVCNFASRNDYSYWLSTPALMPMNMAPITGRALEPYISRCTVCEGPAIAIAVHSQTTDIPPCPHGWISLWKGFSFIMFTSAGSEGTGQALASPGSCLEEFRASPFLECHGRGTCNYYSNSYSFWLASLNPERMFRKPIPSTVKAGELEKIISRCQVCMKKRH
In the case of B3, the annexin fluorescence (2 μg/ml, 18 hours) is reported as “mild shift”, the annexin fluorescence (20 μg/ml, 18 hours) is reported as “distinct shift of annexin fluorescence peak” and the “Apo (Annexin V-FITC assay)” value is reported as 10 µg. For the same molecule, the annexin fluorescence (concentrations below 0.2 μg/ml) was “did not demonstrate any annexin V positivity”.

B4: Tum-1: residues 54 to 244 of Tumstatin, lacking the N-terminal 53 amino acids (SEQ ID NO:22) (protein)
chain: QRAHGQDLGTLGSCLQRFTTMPFLFCNVNDVCNFASRNDYSYWLSTPALMPMNMAPITGRALEPYISRCTVCEGPAIAIAVHSQTTDIPPCPHGWISLWKGFSFIMFTSAGSEGTGQALASPGSCLEEFRASPFLECHGRGTCNYYSNSYSFWLASLNPERMFRKPIPSTVKAGELEKIISRCQVCMKKRH
modifications: Tum-1 (Tumstatin N-53) (amino acids 54-244 of SEQ ID NO10)
With B4 the “IC50, induction of endothelial cell apoptosis” value was “about 5 μg/ml” and the “Apo (Annexin V-FITC assay)” value was 5 µg.

B5: endostatin: tumor associated angiogenesis inhibitor used as comparator (protein, UniProt P39060 1572-1754, looked up)
Endostatin: HSHRDFQPVLHLVALNSPLSGGMRGIRGADFQCFQQARAVGLAGTFRAFLSSRLQDLYSIVRRADRAAVPIVNLKDELLFPSWEALFSGSEGPLKPGARIFSFDGKDVLRHPTWPQKSVWHGSDPNGRRLTESYCETWRTEAPSATGQASSLLGGRLLGQSAASCHHAYIVLCIENSFMTASK
modifications: Endostatin
In the case of B5, the “IC50, induction of endothelial cell apoptosis” value is reported as “no activity”.

B6: Can-1: N-terminal 114 amino acids of full-length Canstatin (protein, listed as Homo sapiens)
chain: VSIGYLLVKHSQTDQEPMCPVGMNKLWSGYSLLYFEGQEKAHNQDLGLAGSCLARFSTMPFLYCNPGDVCYYASRNDKSYWLSTTAPLPMMPVAEDEIKPYISRCSVCEAPAIA
B6 was tested, and the induction of apoptosis (concentrations above 1 μg/ml) was “induced apoptosis” and the induction of apoptosis (concentrations of less than 1 μg/ml) was “most potent in inducing apoptosis”.
